Patent US20160346402A1 (Bayer, published 2016)

Tests used:
[1] = target: T1, TPP-2305, hTNFRSF12 amino acids a28-80 (recombinant human TWEAKR protein) (human, UniProt Q9NP84 28-80); assay: SPR (Biacore T100), antibody captured, TWEAKR TPP-2305 as analyte, 1:1 model
T1 construct: Soluble monomeric antigen, injected as analyte over the captured antibodies; Bought protein
Description: The antibodies were immobilized on a CM5 sensor chip using an indirect capture reagent, anti-human IgG(Fc). Reagents of the “Human Antibody Capture Kit” (BR-1008-39, GE Healthcare Biacore, Inc.) were used as described by the manufacturer.
Sensorgrams were generated after in-line reference cell correction, followed by subtraction of the buffer sample. The dissociation constant (KD) was calculated based on the ratio of association (kₒₙ) and dissociation (koff) constants, obtained by fitting sensorgrams using a 1:1 first order binding model.

[2] = target: T2, hTNFRSF12 amino acids a28-80-M50A-hIgG1-Fc (human); assay: ELISA: TWEAKR-Fc construct coated at 62 ng/ml, biotinylated IgG titrated from 100 nM; token + marks IC50 of 1 to […] pM
T2 construct: TWEAKR-Fc mutein, coated on the ELISA plate; also called TPP-1988
Description: (§1) To obtain dose-reaction data, the different TWEAKR-Fc muteins were coated at a low concentration (62 ng/ml) onto a 384-well Maxisorb ELISA plate, and a serial 2-fold dilution of biotinylated IgG beginning with a concentration of 100 nM was used as a soluble binding partner. Detection was carried out using streptavidin-HRP and Amplex Red.
(§2) IgGs were biotinylated using an about 2-fold molar excess of biotin-LC-NHS (Pierce; Cat. No. 21347) according to the instructions of the manufacturer and desalted using Zeba desalting columns (Pierce; Cat. No. 89889).

[3] = target: T3, hTNFRSF12 amino acids a28-80-S40R-hIgG1-Fc (human); assay: as above
T3 construct: TWEAKR-Fc mutein, coated on the ELISA plate; also called TPP-1987
Description: as §1, §2

[4] = target: T4, hTNFRSF12 amino acids a28-80-T33Q-hIgG1-Fc (human); assay: as above
T4 construct: TWEAKR-Fc mutein, coated on the ELISA plate; also called TPP-1986
Description: as §1, §2

[5] = target: T5, hTNFRSF12 amino acids a28-80-L65Q-hIgG1-Fc (human); assay: as above
T5 construct: TWEAKR-Fc mutein, coated on the ELISA plate
Description: as §1, §2

[6] = target: T6, hTNFRSF12 amino acids a28-80-hIgG1-Fc (human); assay: as above
T6 construct: wild-type TWEAKR-Fc (dimeric Fc fusion), coated on the ELISA plate; also called TPP-599; HUMAN-TNFRSF12Aaa28-80-hIgG1-Fc
Description: as §1, §2

[7] = target: T7, hTNFRSF12 amino acids a28-80-H60K-hIgG1-Fc (human); assay: as above
T7 construct: TWEAKR-Fc mutein, coated on the ELISA plate; also called TPP-1989
Description: as §1, §2

| Binder | Kd [1] [nM] | koff [1] [s⁻¹] | kon [1] [M⁻¹ s⁻¹] | binding result [2] | binding result [3] | binding result [4] | binding result [5] | binding result [6] | binding result [7] |
| --- | --- | --- | --- | --- | --- | --- | --- | --- | --- |
| TPP-883 (antibody, human IgG1, kappa, V domains shown, human IgG1) VH: EVQLLESGGGLVQPGGSLRLSCAASGFTFSPYPMMWVRQAPGKGLEWVSYISPSGGKTHYADSVKGRFTISRDNSKNTLYLQMNSLRAEDTAVYYCARGGDGYFDYFDYWGQGTLVTVSS VL: DIQMTQSPATLSASVGDRVTITCRASQSISSYLNWYQQKPGKAPKLLIYAASSLQSGVPSRFSGSGSGTDFTLTISSLQPEDFATYYCQQSYSSPGITFGPGTKVEIKR | 206 | 0.91 | 4.4e+06 |  |  |  |  |  |  |
| TPP-2148 (antibody, human IgG1, kappa, V domains shown, human IgG1) VH: EVQLLESGGGLVQPGGSLRLSCAASGFTFSPYPMMWVRQAPGKGLEWVSYISPSGGKTHYADSVKGRFTISRDNSKNTLYLQMNSLRAEDTAVYYCARGGDTYFDYFDYWGQGTLVTVSS VL: DIQMTQSPATLSASVGDRVTITCRASQSISSYLNWYQQKPGKAPKLLIYQASSLQSGVPSRFSGSGSGTDFTLTISSLQPEDFATYYCQQSYTSPFITFGPGTKVEIKR | 24.5 | 0.13 | 5.1e+06 |  |  |  |  |  |  |
| TPP-1538 (antibody, human IgG1, kappa, human IgG1) light: AQDIQMTQSPATLSASVGDRVTITCRASQSISSYLNWYQQKPGKAPKLLIYAASSLQSGVPSRFSGSGSGTDFTLTISSLQPEDFATYYCQQSYSSPGITFGPGTKVEIKRTVAAPSVFIFPPSDEQLKSGTASVVCLLNNFYPREAKVQWKVDNALQSGNSQESVTEQDSKDSTYSLSSTLTLSKADYEKHKLYACEVTHQGLSSPVTKSFNRGEC heavy: not shown | 27.6 | 0.11 | 4.2e+06 |  |  |  |  |  |  |
| TPP-2084 (antibody, human IgG1, kappa, V domains shown, human IgG1) VH: EVQLLESGGGLVQPGGSLRLSCAASGFTFSPYPMMWVRQAPGKGLEWVSYISPSGGSTHYADSVKGRFTISRDNSKNTLYLQMNSLRAEDTAVYYCARGGDTYFDYFDYWGQGTLVTVSS VL: not shown | 27.6 | 0.11 | 4.2e+06 |  |  |  |  |  |  |
| TPP-2077 (antibody, human IgG1, kappa, human IgG1) light: DIQMTQSPATLSASVGDRVTITCRASQSISSYLNWYQQKPGKAPKLLIYAASSLQSGVPSRFSGSGSGTDFTLTISSLQPEDFATYYCQQSYSSPGITFGPGTKVEIKRTVAAPSVFIFPPSDEQLKSGTASVVCLLNNFYPREAKVQWKVDNALQSGNSQESVTEQDSKDSTYSLSSTLTLSKADYEKHKLYACEVTHQGLSSPVTKSFNRGEC heavy: not shown | 28.9 | 0.086 | 3e+06 |  |  |  |  |  |  |
| PDL-192(TPP-1104) (antibody, human IgG1, kappa, V domains shown, human IgG1; variable domains from WO2009/020933 with a human IgG1 constant region added; biotinylated IgG in the ELISA) VH: QVELVESGGGLVQPGGSLRLSCAASGFTFSSYWMSWVRQAPGKGLEWVAEIRLKSDNYATHYAESVKGRFTISRDDSKNSLYLQMNSLRAEDTAVYYCTGYYADAMDYWGQGTLVTVSS VL: DIQMTQSPSSLSASVGDRVTITCRASQSVSTSSYSYMHWYQQKPGKAPKLLIKYASNLESGVPSRFSGSGSGTDFTLTISSLQPEDFATYYCQHSWEIPYTFGGGTKVEIKR |  |  |  | binds |  |  |  |  |  |
| 136.1(TPP-2194) (antibody, mouse IgG2a, kappa, V domains shown, murine IgG2a; variable domains from WO2009/020933 with a murine IgG2 constant region added; biotinylated IgG in the ELISA) VH: EVKLEESGGGLVQPGGSMKLSCVASGFTFNNYWMSWVRQSPEKGLEWLAEIRLKSDNYATHYAESVKGKFTISRDDSKSRLYLQMNNLRAENTGIYYCTGGFADYFDYWGQGTTLTVSS VL: DIVLTQSPASLTVSLGQRATISCRASQSVSTSSYSYMQWYQQRPGQPPKLLIKYATNLDSGVPARFSGSGSGTDFTLNIHPVEEEDAATYYCQHSWEIPYTFGGGTKLEIKR |  |  |  | binds | binds | binds | binds | binds | binds |
| 18.3.3(TPP-2193) (antibody, mouse IgG2a, kappa, V domains shown, murine IgG2a; variable domains from WO2009/020933 with a murine IgG2 constant region added; biotinylated IgG in the ELISA) VH: EVKLGESGGGLVQPGGSMKLSCVASGFPFTKYWMNWVRQSPEKGLEWVAEIRLKSDNYATHYAESAKGRFTISRDDSRSSVYLQMNNLRAEDTAIYYCSPTYADTMDYWGQGTSVTVSS VL: DIVLTQSPASLAVSLGQRATISCKASQSVSTSTYSYMQWYQQRPGQSPKLLIKYASKLDSGVPARFSGSGSGTDFTLNIHPVEEEDTATYYCQHSWELPYTFGGGTRLEIKR |  |  |  | binds | binds | binds | binds | binds | binds |

The next lines start with the values.

| Kd [1] [nM] | koff [1] [s⁻¹] | kon [1] [M⁻¹ s⁻¹] | binding result [2] | binding result [3] | binding result [4] | binding result [5] | binding result [6] | binding result [7] | Binder |
| --- | --- | --- | --- | --- | --- | --- | --- | --- | --- |
| 0.5 | 0.00122 | 2.31e+06 |  |  |  |  |  |  | P3G5(TPP-2195) (antibody, mouse IgG2a, kappa, V domains shown, Comparative antibody, murine IgG2a; variable domains from WO2009/140177 with added constant regions) VH: QVQLQQSGPEVVRPGVSVKISCKGSGYTFTDYGIHWVKQSHAKSLEWIGVISTYNGYTNYNQKFKGKATMTVDKSSSTAYMELARLTSEDSAIYYCARAYYGNLYYAMDYWGQGTSVTVSS VL: DIVLTQSPASLAVSLGQRATISCRANKSVSTSSYSYMHWYQQKPGQPPKLLIKYASNLESGVPARFSGSGSGTDFILNIHPVEEEDAATYYCQHSRELPFTFGSGTKLEIKR |
| 2.3 | 0.0027 | 1.2e+06 |  |  |  |  |  |  | P4A8(TPP-1324) (antibody, human IgG1, kappa, V domains shown, Comparative antibody, human IgG1; variable domains from WO2009/140177 with added constant regions) VH: QVQLVQSGAEVKKPGASVKVSCKGSGYTFTDYGMHWVRQAPGQGLEWMGVISTYNGYTNYNQKFKGRVTMTVDKSTSTAYMELRSLRSDDTAVYYCARAYYGNLYYAMDYWGQGTLVTVSS VL: DIVLTQSPASLAVSLGQRATISCRASKSVSTSSYSYMHWYQQKPGQPPKLLIKYASNLESGVPARFSGSGSGTDFSLNIHPMEEDDTAMYFCQHSRELPFTFGGGTKLEIKR |
| 12.4 | 0.11 | 9.1e+06 |  |  |  |  |  |  | TPP-2090 (antibody, human IgG1, kappa, V domains shown, human IgG1; also called anti-TWEAKR AK-1) VH: EVQLLESGGGLVQPGGSLRLSCAASGFTFSPYPMIWVRQAPGKGLEWVSYISPSGGSTHYADSVKGRFTISRDNSKNTLYLQMNSLRAEDTAVYYCARGGDTYFDYFDYWGQGTLVTVSS VL: DIQMTQSPSSLSASVGDRVTITCRASQSISGYLNWYQQKPGKAPKLLIYQASSLQSGVPSRFSGSGSGTDFTLTISSLQPEDFATYYCQQSYTSPFITFGQGTKVEIKR |
| 22.1 | 0.09 | 4.1e+06 |  |  |  |  |  |  | TPP-2093 (antibody, human IgG1, kappa, V domains shown, human IgG1) VH: EVQLLESGGGLVQPGGSLRLSCAASGFTFSPYPMMWVRQAPGKGLEWVSYISPSGGSTHYADSVKGRFTISRDNSKNTLYLQMNSLRAEDTAVYYCARGGDTYFDYFDYWGQGTLVTVSS VL: DIQMTQSPSSLSASVGDRVTITCRASQSISSYLNWYQQKPGKAPKLLIYQASSLQSGVPSRFSGSGSGTDFTLTISSLQPEDFATYYCQQSYTSPFITFGQGTKVEIKR |
| 12.1 | 0.1 | 8.4e+06 |  |  |  |  |  |  | TPP-2149 (antibody, human IgG1, kappa, V domains shown, human IgG1) VH: EVQLLESGGGLVQPGGSLRLSCAASGFTFSPYPMIWVRQAPGKGLEWVSYISPSGGKTHYADSVKGRFTISRDNSKNTLYLQMNSLRAEDTAVYYCARGGDTYFDYFDYWGQGTLVTVSS VL: DIQMTQSPATLSASVGDRVTITCRASQSISGYLNWYQQKPGKAPKLLIYQASSLQSGVPSRFSGSGSGTDFTLTISSLQPEDFATYYCQQSYTSPFITFGPGTKVEIKR |
| 0.8 | 0.0324 | 3.84e+07 |  |  |  |  |  |  | 136.1(TPP-2194) (antibody, mouse IgG2a, kappa, V domains shown, Comparative antibody, murine IgG2a; variable domains from WO2009/020933 with added constant regions) VH: EVKLEESGGGLVQPGGSMKLSCVASGFTFNNYWMSWVRQSPEKGLEWLAEIRLKSDNYATHYAESVKGKFTISRDDSKSRLYLQMNNLRAENTGIYYCTGGFADYFDYWGQGTTLTVSS VL: DIVLTQSPASLTVSLGQRATISCRASQSVSTSSYSYMQWYQQRPGQPPKLLIKYATNLDSGVPARFSGSGSGTDFTLNIHPVEEEDAATYYCQHSWEIPYTFGGGTKLEIKR |
| 1.7 | 0.0285 | 1.64e+07 |  |  |  |  |  |  | 18.3.3(TPP-2193) (antibody, mouse IgG2a, kappa, V domains shown, Comparative antibody, murine IgG2a; variable domains from WO2009/020933 with added constant regions) VH: EVKLGESGGGLVQPGGSMKLSCVASGFPFTKYWMNWVRQSPEKGLEWVAEIRLKSDNYATHYAESAKGRFTISRDDSRSSVYLQMNNLRAEDTAIYYCSPTYADTMDYWGQGTSVTVSS VL: DIVLTQSPASLAVSLGQRATISCKASQSVSTSTYSYMQWYQQRPGQSPKLLIKYASKLDSGVPARFSGSGSGTDFTLNIHPVEEEDTATYYCQHSWELPYTFGGGTRLEIKR |
